Assay results reported in the RNAGym collection of RNA variant scans (doi:10.1021/acssynbio.7b00057).

B1: Pistol ribozyme (parent)
chain: GGGUCGUUGUUCCAUAAUCGCGUGGAUAUGGCACGCAAGUUUCUACCGGGCACCGUAAAUGUCCGACUGGAGCCGUUCGGGCGGCUAUAAACAGACCUCAGGCCCGAAGCGUGGCGGCACCUGCCGCCGGUGGUAAAAAAGAUCGGAAGAGCACACGUCU

Variants of: B1
Assay: aptazyme ON/OFF ratio, guanine; higher = stronger switching; co-transcriptional cleavage with and without guanine

Going from U8A G9C U10C C12A C13A to U8A G9C U10C C12A C13G, the “aptazyme ON/OFF ratio” value rises from 1.03 to 1.08.

Compared with U8A G9C U10C C12A C13U, U8A G9A U10G U11C C12G is higher in “aptazyme ON/OFF ratio” value: 0.995 for the first, 1.2 for the second.

First: U8A G9A U10G U11C C12A
Second: U8A G9A U10G U11C C12U
The “aptazyme ON/OFF ratio” value of the first is higher: 1.15 for the first, 1.07 for the second.

Compared with U8A G9C U10G U11A C13A, U8A G9A U10G U11G C12G C13G is higher in “aptazyme ON/OFF ratio” value: 1.03 for the first, 1.07 for the second.

Compared with U8A G9A U10G U11G C12G C13A, U8A G9A U10G U11G C12G C13U is higher in “aptazyme ON/OFF ratio” value: 1.01 for the first, 1.05 for the second.

U8A G9C U10C U11G C13A and U8A G9C U10C U11G C13U are the same in “aptazyme ON/OFF ratio” value: 1.08 for the first, 1.08 for the second.

First: U8A G9C U10C U11G C13G
Second: U8A G9A U11C C12G C13A
The “aptazyme ON/OFF ratio” value of the first is lower: 1.05 for the first, 1.15 for the second.

First: U8A G9A U11C C12G C13G
Second: U8A G9A U11C C12G C13U
The “aptazyme ON/OFF ratio” value of the first is lower: 1.15 for the first, 1.22 for the second.

Going from U8A G9C U10A U11C C12G C13A to U8A G9C U10A U11C C12G C13G, the “aptazyme ON/OFF ratio” value falls from 1.13 to 1.09.

Compared with U8A G9C U10A U11C C12G C13U, U8A G9A U10C U11A is higher in “aptazyme ON/OFF ratio” value: 1.07 for the first, 1.33 for the second.

Compared with U8A G9A U10C U11G, U8A G9A U10C U11C is lower in “aptazyme ON/OFF ratio” value: 1.33 for the first, 1.04 for the second.

Compared with U8A G9A U10C U11A C12U C13G, U8A G9A U10C U11A C12U C13U is higher in “aptazyme ON/OFF ratio” value: 1.21 for the first, 1.33 for the second.

Going from U8A G9A U10C U11A C12U C13A to U8A G9A U10G C12G C13A, the “aptazyme ON/OFF ratio” value falls from 1.31 to 1.14.

First: U8A G9A U10G C12G C13G
Second: U8A G9A U10G C12G C13U
The “aptazyme ON/OFF ratio” value of the first is lower: 1.1 for the first, 1.26 for the second.

Going from U8A G9A U10C U11A C13A to U8A G9A U10C U11A C13G, the “aptazyme ON/OFF ratio” value falls from 1.11 to 1.07.

First: U8A G9A U10C U11A C13U
Second: U8A G9C U10C U11C C12A C13G
The “aptazyme ON/OFF ratio” value of the first is higher: 1.15 for the first, 1.01 for the second.

Compared with U8A G9C U10C U11C C12A C13A, U8A G9C U10C U11C C12A C13U is lower in “aptazyme ON/OFF ratio” value: 1.04 for the first, 1.03 for the second.

Going from U8A G9A U10G U11A C12U to U8A G9A U10G U11A C12G, the “aptazyme ON/OFF ratio” value rises from 1.06 to 1.24.

Compared with U8A G9A U10G U11A C12A, U8A G9A U10G U11A C12A C13A is higher in “aptazyme ON/OFF ratio” value: 1.17 for the first, 1.19 for the second.

Going from U8A G9A U10G U11A C12A C13U to U8A G9A U10G U11A C12A C13G, the “aptazyme ON/OFF ratio” value falls from 1.25 to 1.24.

First: U8A G9C C12U
Second: U8A G9C C12G
The “aptazyme ON/OFF ratio” value of the first is higher: 1.3 for the first, 1.22 for the second.

Compared with U8A G9C C12A, U8A G9C U10A U11G C13G is lower in “aptazyme ON/OFF ratio” value: 1.37 for the first, 1.04 for the second.

Compared with U8A G9C U10A U11G C13A, U8A G9C U10A U11G C13U is higher in “aptazyme ON/OFF ratio” value: 1.11 for the first, 1.18 for the second.

First: U8A G9C C12A C13G
Second: U8A G9C C12A C13A
The “aptazyme ON/OFF ratio” value of the first is lower: 1.17 for the first, 1.24 for the second.

First: U8A G9C C12A C13U
Second: U8A G9A U10C U11A C12G
The “aptazyme ON/OFF ratio” value of the first is lower: 1.25 for the first, 1.26 for the second.

First: U8A G9A U10C U11A C12U
Second: U8A G9A U10C U11A C12A
The “aptazyme ON/OFF ratio” value of the first is lower: 1.19 for the first, 1.31 for the second.

Compared with U8A G9A U11A C13G, U8A G9A U11A C13U is higher in “aptazyme ON/OFF ratio” value: 1.03 for the first, 1.16 for the second.

Compared with U8A G9A U11A C13A, U8A G9C U10A U11G C12A C13U is lower in “aptazyme ON/OFF ratio” value: 1.26 for the first, 1.14 for the second.

Going from U8A G9C U10A U11G C12A C13A to U8A G9C U10A U11G C12A C13G, the “aptazyme ON/OFF ratio” value rises from 1.14 to 1.26.

U8A G9A U11C C13U and U8A G9A U11C C13A are the same in “aptazyme ON/OFF ratio” value: 1.04 for the first, 1.04 for the second.

First: U8A G9A U11C C13G
Second: U8A G9A U10C U11G C12U C13U
The “aptazyme ON/OFF ratio” value of the first is lower: 1.08 for the first, 1.22 for the second.

Going from U8A G9A U10C U11G C12U C13G to U8A G9A U10C U11G C12U C13A, the “aptazyme ON/OFF ratio” value falls from 1.22 to 1.17.

Compared with U8A G9C U10C U11G C12U C13G, U8A G9C U10C U11G C12U C13U is lower in “aptazyme ON/OFF ratio” value: 1.08 for the first, 1.07 for the second.

Going from U8A G9C U10C U11G C12U C13A to U8A G9C U10C U11G C12A C13G, the “aptazyme ON/OFF ratio” value rises from 1.07 to 1.08.

Going from U8A G9C U10C U11G C12A C13U to U8A G9C U10C U11G C12A C13A, the “aptazyme ON/OFF ratio” value rises from 1.02 to 1.06.

First: U8A G9C U10C C12A
Second: U8A G9C U10C C12U
The “aptazyme ON/OFF ratio” value of the first is lower: 1.04 for the first, 1.06 for the second.

Compared with U8A G9C U10C C12G, U8A G9C U10C U11G C12G C13G is higher in “aptazyme ON/OFF ratio” value: 1.05 for the first, 1.12 for the second.

First: U8A G9C U10C U11G C12G C13U
Second: U8A G9C U10C U11G C12G C13A
The “aptazyme ON/OFF ratio” value of the first is lower: 1.09 for the first, 1.14 for the second.

Going from U8A G9A U11G to U8A G9A U11A, the “aptazyme ON/OFF ratio” value falls from 1.44 to 1.39.

Going from U8A G9A U11C to U8A G9A U10G U11C C12G C13G, the “aptazyme ON/OFF ratio” value rises from 1.05 to 1.14.

Going from U8A G9A U10G U11C C12G C13U to U8A G9A U10G U11C C12G C13A, the “aptazyme ON/OFF ratio” value falls from 1.18 to 1.16.

With U8A G9A U10G U11G C12A C13A the “aptazyme ON/OFF ratio” value was 1.12.
